Experiment [1] deals with PD-1 (residues 1-199) C-terminally fused to the beta-galactosidase enzyme acceptor (EA) fragment, on U2OS … (human, UniProt Q15116 25-199). Nature of the experiment: cell-based or functional assay.
In experiment [2] the target is LAG3 (residues 1-477) C-terminally fused to the beta-galactosidase ProLink (PK) fragment, on U2OS cells (human). Nature of the experiment: cell-based or functional assay.
For experiment [3], the target named is T1, human LAG3 expressed on the cell surface (CHO-LAG3, 293T-LAG3 cells) (human, UniProt P18627 23-525).
T1 construct: Stably transfected CHO or HEK293T cells; also called Human LAG3 (CHO); Human LAG3 (293T)
T1 sequence: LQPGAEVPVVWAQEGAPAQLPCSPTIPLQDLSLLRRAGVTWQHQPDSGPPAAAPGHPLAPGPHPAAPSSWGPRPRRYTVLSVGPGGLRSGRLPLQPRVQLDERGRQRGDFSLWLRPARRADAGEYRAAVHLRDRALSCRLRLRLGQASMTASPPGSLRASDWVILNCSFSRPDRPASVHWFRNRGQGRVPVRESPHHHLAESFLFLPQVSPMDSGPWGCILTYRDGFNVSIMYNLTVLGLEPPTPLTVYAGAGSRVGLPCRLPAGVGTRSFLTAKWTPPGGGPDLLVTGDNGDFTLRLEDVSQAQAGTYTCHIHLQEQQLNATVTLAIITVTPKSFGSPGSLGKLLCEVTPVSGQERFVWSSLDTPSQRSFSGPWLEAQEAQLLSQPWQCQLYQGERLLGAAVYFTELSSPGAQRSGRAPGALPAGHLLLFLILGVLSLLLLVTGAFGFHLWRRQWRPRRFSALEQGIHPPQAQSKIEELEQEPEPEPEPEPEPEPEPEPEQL
The experiment can be described thus: flow cytometry cell binding on CHO cells expressing human LAG3; PE anti-human IgG detection; one site-specific binding with Hill slope fit. As to the method: CHO-k cells stably expressing PD-1 or LAG3 (human or cynomolgus) on the cell surface were used to assess binding affinity of anti-PD-1/LAG3 bispecific antibody constructs. Cells were seeded at 100,000 cells/well in 100 μL of FACS buffer (1×PBS, 0.5% BSA, 0.1% sodium azide) in 96-well polypropylene plates. The cells were centrifuged at 1.5K rpm and resuspended with test antibodies diluted in FACS buffer and incubated on ice for 1 hour. The cells were washed twice with FACS buffer and incubated on ice for 30 mins with R-Phycoerythrin-AffiniPure F(ab′)2 Fragment Goat Anti-Human IgG (H+L) secondary detection antibody (1:200 dilution, Jackson ImmunoResearch Laboratories, West Grove, Pa.). The cells were washed twice with FACS buffer, fixed in 4% paraformaldehyde in PBS (Santa Cruz Biotechnology; Dallas, Tex.) for 20 mins on ice in the dark, washed twice with FACS buffer, and analyzed using the BD LSR II Flow Cytometer (BD Biosciences; San Jose, Calif.). Data were analyzed using FlowJo (FlowJo, LLC; Ashland, Oreg.) to determine mean fluorescence intensities. Binding constants were calculated using the statistical software, GraphPad Prism (GraphPad Software; La Jolla, Calif.) using the nonlinear regression equation, one site—specific binding with Hill slope. The secondary antibody by itself was used as a control.
(In general: Flow cytometry measures light scatter and fluorescence of single cells or particles in a stream.)

Experiment [4] concerns the target T2, hPD1 (Acro Biosystems), SPR analyte (human, UniProt Q15116 25-167).
T2 construct: also called human PD1 kinetics
The experiment can be described thus: SPR (Biacore), antibody captured by anti-Fc, hPD1 as analyte, 25 C. As to the method: Anti-Fc polyclonal antibodies were immobilized onto a CMS chip (GE Life Sciences) using amine coupling chemistry (from Amine Coupling Kit, GE Life Sciences). The immobilization steps were carried out at a flow rate of 25 μl/min in 1×HBS-EP+buffer (GE Life Sciences; 10× Stock diluted before use). The sensor surfaces were activated for 7 min with a mixture of NHS (0.05 M) and EDC (0.2 M). The Anti-Fc antibodies were injected over all 4 flow cells at a concentration of 25 ug/ml in 10 mM sodium acetate, pH 4.5, for 7 min. Ethanolamine (1 M, pH 8.5) was injected for 7 min to block any remaining activated groups. An average of 12,000 response units (RU) of capture antibody was immobilized on each flow cell.
Kinetic binding experiments were performed at 25° C. using 1×HBS-EP+buffer. Test and control antibodies were injected over the anti-Fc surface at concentrations of 5-10 μg/mL for 12 seconds at a flow rate of 10 μl/min on flow cells 2, 3 and 4, followed by a buffer wash for 30 seconds at the same flow rate. Kinetic characterization of antibody samples was carried out with a dilution series of antigen and 1 injection of 0 nM antigen. After capturing ligand (antibody) on the anti-Fc surface, the analyte (hPD1 or hLAG3, Acro Biosystems, Newark, Del.) was bound at 100, 25, 6.25 and 0 nM for 180 seconds, followed by a 450 second dissociation phase at a flow rate of 50 μl/min. Between each ligand capture and analyte binding cycle, regeneration was carried out using 2 injections of 10 mM Glycine pH 2.0 for 30 seconds at 30 μL/min, followed by a 30 second buffer wash step.
The data was fit with the Biacore T200 Evaluation software, using a 1:1 Langmuir binding model. KD (affinity, nM) was determined as a ratio of the kinetic rate constants calculated from the fits of the association and dissociation phases.

The target in experiment [5] is T3, rabbit Fc-tagged recombinant human PD1 (rhPD1-rabbit Fc) (human, UniProt Q15116 25-167, limits assumed).
T3 construct: also called recombinant human PD-1 protein
T3 sequence (Q15116 25-167 limits assumed): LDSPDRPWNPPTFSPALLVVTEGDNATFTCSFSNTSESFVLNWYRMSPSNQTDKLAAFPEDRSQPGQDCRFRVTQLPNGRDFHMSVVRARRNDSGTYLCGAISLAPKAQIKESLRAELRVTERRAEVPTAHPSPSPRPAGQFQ
Nature of the experiment: flow cytometry competition: inhibition of rhPD1-rabbit Fc binding to human PD-L1 on CHO cells; PE anti-rabbit IgG detection. As for the experimental part:
CHO-k cells stably expressing human PD-L1 or PD-L2 were used to measure the ability of anti-PD1/LAG3 bi-specific antibody constructs to block rabbit Fc-tagged recombinant human PD1 (rhPD1-rabbit Fc) protein binding. Cells were seeded at 100,000 cells/well in 100 μL of FACS buffer in 96-well polypropylene plates. The cells were centrifuged and resuspended with test antibodies (2× concentration) diluted in FACS buffer, immediately followed by equal volume of rhPD1-rabbit Fc (added at 2× concentration; 0.2 ng/mL and 0.1 ng/mL final for PD-L1 and PD-L2, respectively). Cells were incubated on ice for 1 hour and washed twice. rhPD1-rabbit Fc binding on CHO-human PD-L1 or PD-L2 cells was detected with R-Phycoerythrin AffiniPure F(ab′)₂ Fragment Goat Anti-Rabbit IgG (H+L) (1:200 dilution, Jackson ImmunoResearch) for 30 minutes. The cells were washed twice with FACS buffer, fixed in 4% paraformaldehyde in PBS for 20 mins on ice in the dark, washed twice with FACS buffer, and analyzed using the BD LSR II Flow Cytometer. Data were analyzed using FlowJo (FlowJo, LLC; Ashland, Oreg.) to determine mean fluorescence intensities. Prism 6 software was used to create one site, specific binding with Hill slope curves (Log transform) to determine IC₅₀ values.

T2 sequence (Q15116 25-167 limits assumed): as above
Chain of LAG3 (residues 1-477) C-terminally fused to the beta-galactosidase ProLink (PK) fragment, on U2OS cells (human) (P18627 1-477): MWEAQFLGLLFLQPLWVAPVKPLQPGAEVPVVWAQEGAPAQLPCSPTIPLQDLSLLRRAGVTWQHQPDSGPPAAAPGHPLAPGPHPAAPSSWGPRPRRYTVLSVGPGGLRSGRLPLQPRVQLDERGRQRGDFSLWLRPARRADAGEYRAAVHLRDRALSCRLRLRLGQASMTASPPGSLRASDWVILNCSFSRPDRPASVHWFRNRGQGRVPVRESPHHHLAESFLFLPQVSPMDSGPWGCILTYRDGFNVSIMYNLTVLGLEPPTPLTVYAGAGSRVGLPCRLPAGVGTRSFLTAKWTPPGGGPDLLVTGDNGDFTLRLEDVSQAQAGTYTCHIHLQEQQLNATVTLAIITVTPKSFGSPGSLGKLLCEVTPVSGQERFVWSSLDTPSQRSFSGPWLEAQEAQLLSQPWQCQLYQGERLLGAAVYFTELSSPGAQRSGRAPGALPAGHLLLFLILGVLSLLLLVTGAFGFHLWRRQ

B1: PD-1/LAG3 Bi-specific Construct B: aPD1 1353-G10 scFvFc zwB R28T/P30D/H31S V262E; aLAG3 1449-G09.2 Fab zwA V262E (bispecific antibody, human IgG1, kappa)
scFv: EVQLVQSGAEVKKPGASVKVSCKASGYTFDSYGISWVRQAPGQGLEWMGWISAYNGNTNYAQKLQGRVTMTTDTSTNTAYMELRSLRSDDTAVYYCARDVDYGTGSGYWGQGTLVTVSSGGGGSGGGGSGGGGSSYELTQPPSVSVSPGQTARITCSGDALPKQYAYWYQQKPGQAPVMVIYKDTERPSGIPERFSGSSSGTKVTLTISGVQAEDEADYYCQSADNSITYRVFGGGTKVTVLAAGSDQEPKSSDKTHTCPPCPAPELLGGPSVFLFPPKPKDTLMISRTPEVTCEVVDVSHEDPEVKFNWYVDGVEVHNAKTKPREEQYNSTYRVVSVLTVLHQDWLNGKEYKCKVSNKALPAPIEKTISKAKGQPREPQVYVLPPSREEMTKNQVSLLCLVKGFYPSDIAVEWESNGQPENNYLTWPPVLDSDGSFFLYSKLTVDKSRWQQGNVFSCSVMHEALHNHYTQKSLSLSPGK
heavy: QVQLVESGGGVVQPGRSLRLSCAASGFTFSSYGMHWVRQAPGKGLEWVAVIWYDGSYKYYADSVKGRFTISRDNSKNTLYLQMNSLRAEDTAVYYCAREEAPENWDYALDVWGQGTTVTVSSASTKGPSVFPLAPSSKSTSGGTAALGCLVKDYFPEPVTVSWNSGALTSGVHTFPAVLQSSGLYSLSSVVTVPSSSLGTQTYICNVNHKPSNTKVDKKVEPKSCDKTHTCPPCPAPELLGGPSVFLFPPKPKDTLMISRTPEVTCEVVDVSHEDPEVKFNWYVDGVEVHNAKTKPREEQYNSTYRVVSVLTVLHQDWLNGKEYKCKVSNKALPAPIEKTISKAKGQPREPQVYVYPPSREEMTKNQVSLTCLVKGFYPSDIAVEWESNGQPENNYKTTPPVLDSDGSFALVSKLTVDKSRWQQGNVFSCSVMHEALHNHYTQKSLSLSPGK
light: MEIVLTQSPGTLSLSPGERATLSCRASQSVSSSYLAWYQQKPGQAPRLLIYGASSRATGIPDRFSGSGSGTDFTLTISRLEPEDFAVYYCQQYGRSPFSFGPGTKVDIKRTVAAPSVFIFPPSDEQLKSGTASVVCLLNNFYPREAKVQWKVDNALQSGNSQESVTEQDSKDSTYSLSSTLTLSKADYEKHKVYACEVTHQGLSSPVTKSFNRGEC
notes: The N-terminal Met is not included
On to B1, for which the “EC50 of beta-galactosidase enzyme-fragment complementation (RLU) on U2OS cells co-expressing PD-1-EA and LAG3-PK; PD-1/LAG3 cell bridging, needs both targets” value (“EC50” for short) in experiment [1] was 0.16 nM. In addition, in experiment [2], the “EC50” value was found to be 0.16 nM. Also, in experiment [3], the Bmax is 975 MFI and binding was put at a Kd of 0.4 nM. In experiment [4], this molecule came in with a Kd of 4.37 nM, a koff of 0.00487 s⁻¹ and an on-rate (kon) of 1.12e+06 M⁻¹ s⁻¹. Moreover, the IC50 in experiment [5] came out at 4.7 nM.

B2: PD-1/LAG3 Bi-specific Construct C: aPD1 1353-G10 Vk1-39LC scFvFc zwB V262E; aLAG3 1449-G09.2 Fab zwA V262E (bispecific antibody, human IgG1, kappa)
scFv: EVQLVQSGAEVKKPGASVKVSCKASGYRFPHYGISWVRQAPGQGLEWMGWISAYNGNTNYAQKLQGRVTMTTDTSTNTAYMELRSLRSDDTAVYYCARDVDYGTGSGYWGQGTLVTVSSGGGGSGGGGSGGGGSDIQLTQSPSSLSASVGDRVTITCSGDALPKQYAYWYQQKPGKAPKLLIYKDTERPSGVPSRFSGSSSGTKVTLTISSLQPEDFATYYCQSADNSITYRVFGGGTKVEIKAAGSDQEPKSSDKTHTCPPCPAPELLGGPSVFLFPPKPKDTLMISRTPEVTCEVVDVSHEDPEVKFNWYVDGVEVHNAKTKPREEQYNSTYRVVSVLTVLHQDWLNGKEYKCKVSNKALPAPIEKTISKAKGQPREPQVYVLPPSREEMTKNQVSLLCLVKGFYPSDIAVEWESNGQPENNYLTWPPVLDSDGSFFLYSKLTVDKSRWQQGNVFSCSVMHEALHNHYTQKSLSLSPGK
heavy: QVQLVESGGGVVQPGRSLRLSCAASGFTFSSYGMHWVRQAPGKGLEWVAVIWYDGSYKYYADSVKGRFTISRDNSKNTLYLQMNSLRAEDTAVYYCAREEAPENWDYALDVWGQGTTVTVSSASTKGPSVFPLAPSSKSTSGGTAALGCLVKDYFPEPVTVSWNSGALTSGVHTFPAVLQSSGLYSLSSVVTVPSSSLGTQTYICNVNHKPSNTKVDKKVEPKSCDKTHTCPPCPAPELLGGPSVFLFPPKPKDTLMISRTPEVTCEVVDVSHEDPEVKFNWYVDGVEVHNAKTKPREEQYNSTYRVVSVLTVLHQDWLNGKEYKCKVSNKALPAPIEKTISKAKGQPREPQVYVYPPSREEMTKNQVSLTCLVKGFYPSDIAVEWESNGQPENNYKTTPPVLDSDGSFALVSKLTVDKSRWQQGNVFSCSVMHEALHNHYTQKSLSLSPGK
light: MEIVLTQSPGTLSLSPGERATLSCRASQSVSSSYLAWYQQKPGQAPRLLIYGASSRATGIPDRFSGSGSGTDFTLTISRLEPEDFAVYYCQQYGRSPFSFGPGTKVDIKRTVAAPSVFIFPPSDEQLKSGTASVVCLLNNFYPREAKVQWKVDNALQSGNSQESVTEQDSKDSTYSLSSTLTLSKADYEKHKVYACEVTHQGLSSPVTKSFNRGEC
notes: as for B1
With B2, the “EC50” value in experiment [1] amounted to 0.13 nM. In experiment [2], the “EC50” value is 0.13 nM. For the same molecule, in experiment [3], the Bmax was 1020 MFI and binding was put at a Kd of 0.5 nM. In experiment [4], the Kd was 1.29 nM, the koff amounted to 0.000649 s⁻¹ and the on-rate constant (kon) came out at 503000 M⁻¹ s⁻¹. Moreover, the IC50 in experiment [5] came to 2.4 nM.

By Kd is commonly meant a measure of binding affinity in units of concentration. As usually defined, the koff is the first-order rate constant of dissociation. By kon is commonly meant the rate constant with which the complex forms. Higher therefore signals faster complex formation. For orientation: IC50 means the concentration needed to halve the response being measured.

(Values after patent publication US20200079850A1 (SUTRO BIOPHARMA, published 2020).)
